Measurements: paper doi:10.1101/2025.10.29.685377
Read-outs that look alike come from different tables or passages of the source.

Experiments:
[1] = target: Alka channel (Drosophila melanogaster alkaline taste receptor Alka) (Drosophila melanogaster); assay: cryo-EM structure
[2] = target: Alka channel (Drosophila melanogaster alkaline taste receptor Alka) (Drosophila melanogaster); assay: cryo-EM structure; remark: listed apart in the source

stoichiometry N [1]: 5 | stoichiometry N [2]: 5
Substance: Alka channel (Drosophila melanogaster alkaline taste receptor Alka)
